# Data reported in publication PMC3802530.
# How the values were obtained:
# [1] = target: K11-linked di-ubiquitin (UniProt P0CG48); assay: 15N T1 relaxation
# [2] = target: K11-linked di-ubiquitin (UniProt P0CG48); assay: NMR titration
# [3] = target: K48-linked di-ubiquitin (K48-Ub2) (Homo sapiens) (UniProt P0CG47); conditions: cited from earlier work
# [4] = target: K63-linked di-ubiquitin (K63-Ub2) (Homo sapiens) (UniProt P0CG47); conditions: cited from earlier work
# [5] = target: monoUb (Homo sapiens) (UniProt P0CG47); conditions: cited from earlier work
# hHR23a UBA2 UBA2, sequence (P54725 315-361): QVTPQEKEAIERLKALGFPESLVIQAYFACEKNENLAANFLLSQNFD
# Ub-associated domain (UBA) of Ubiquilin-1, sequence (Q9UMX0 546-586): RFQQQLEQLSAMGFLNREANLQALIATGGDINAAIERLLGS
Substance,stoichiometry N (UBA molecules per K11-Ub2) [1],"Kd, site on the distal Ub (two independent sites) [2]",stoichiometry N (UQ1-UBA:K11-Ub2) [2],Kd [3],Kd [4],Kd [5]
Ub-associated domain (UBA) of Ubiquilin-1 (from UniProt Q9UMX0 546-586) (domain or fragment),2,2.9 µM,2,,,
hHR23a UBA2 UBA2 (from UniProt P54725),,,,18 µM,> 200 µM,400 µM
